Measurements: the nanobody polyreactivity screen of Harvey et al. (2022)

Experiment: yeast display, Sf9 membrane polyspecificity reagent, FACS + sequencing; frameworks hold sequencing errors
In short: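 A nanobody's polyreactivity label depends on the gate it was sorted from. Yeast display cells were stained with 10% biotinylated, detergent-solubilized Sf9 membrane reagent for 1 hour at 4 °C, enriched on streptavidin microbeads and sorted by FACS. The low and high (top ~1%) gates were set on anti-HA fluorescence for expression and streptavidin fluorescence for reagent binding.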

Q: Which “polyreactivity (PSR sort gate)” value does the source give for “QGPHVESGGGLVQAGGSLRLSCAASGSTFYNYAMGWYIQAPGKEREFVATISFSGGSTYYADSVKGRFTISRDNAKNTVYLQMNSLKPEETAVYYCAARALTRKATGYYLTDYWGQGTQVTVSS” here?
A: high polyreactivity

Q: For “QVHLVESGGGLVQAGGSLRLSCAACGLTFTHYTMGWYRQAPGKERELVAAITTSGGSTYYADSLKGRFTISRDNAKKTVYLQLNSLKPEDTPVYYCAADLGGNSRLDYWGQGTQETVSS”, which “polyreactivity (PSR sort gate)” value is on record?
A: high polyreactivity

Q: Which “polyreactivity (PSR sort gate)” value does the source give for “QVQLVESGGGLVQAGGSLRLSCAASGFTFRTNLMVWYRQAPGKERELVAVITRDGGSTYYADSVKGRFTISRDHAKNTVYLQINSLKPEDTAVYYCNAAAFINFILYDYWGQGTQVTVSS” here?
A: high polyreactivity

Q: For “QVQLVESGGGLVQAGGSLRLSCAASGRIFVVYAMGWYRQAPGKERELVAAIRSGGSTNYADSVKGRFTISRDNAKNTVYLQMNSLKPEDTAVYYCADCKWHSAYDYWGQGTQVTVSS”, which “polyreactivity (PSR sort gate)” value is on record?
A: high polyreactivity

Q: Which “polyreactivity (PSR sort gate)” value does the source give for “QVQLEESGGGIVQAGGSLRLSCAASGRIFYHYAMGGYRKAPGKEREWVAAISGSGGSTYYADSVKGGFTISRYNAKNTVYLQMNSLNPEDTAVFYCSTSGPQYYARNFDYCGQGTQVTVSS” here?
A: low polyreactivity

Q: With “QVQLVESWGGLVQAGGSLRLSCAASGSIFDYNAMGWYRQAPGKERELVAAISSGGSTNYADSVKGRFTISRDNAKNTVYLQMNSLKPEDTAVYYCNTGLYWLGYWPDDYWGQGTQVTVSS” as the sequence, how does the “polyreactivity (PSR sort gate)” value read?
A: low polyreactivity

Q: With “QVQLVESGGRLVQAGGSIRLICAASGFTFIGYAMGWYRQAPGKERELVADITYSGSSTYYADSVKGRFTISRDNAKNTVYLQMNSLKPEDTAVYYCAAEAYYYCFDVDYWGQGTLVTVSS” as the sequence, how does the “polyreactivity (PSR sort gate)” value read?
A: low polyreactivity

Q: Which “polyreactivity (PSR sort gate)” value does the source give for “QVQLVESGGGLVQAGGSLRLSCAASGRIFSSYDMGWYRQAPGKERELDAAISSRTGITNYADSVKGRFTISRDNAKNTVYLQMNSLKPEDTAVYYCAKVGWYGYTRSYKYGYWGQGTQVTVSS” here?
A: high polyreactivity

Q: With “QVQLVESRGGLVQAGGSLRLSCAASGRTLTAYAMGWYRQAPGKERELVDDISFGGGTTYYADSVKGRFTISSDNAKNTVYLQMNSLKPEDTAVYYCAAANYVDIWDFYWFDDYWGQGTQVTVSS” as the sequence, how does the “polyreactivity (PSR sort gate)” value read?
A: high polyreactivity

Q: Which “polyreactivity (PSR sort gate)” value does the source give for “QVQLVESGGGLVQAGGRLRLSCAASVRILGKYAMGWYRQAPGKERELVAAIRLRGGSTYYADSVKGRFTISRDNAKNTVYLQMNSLKPEDTAVYYCAARYWDRSQAYYYWGQGTQVTVSS” here?
A: high polyreactivity

Q: Which “polyreactivity (PSR sort gate)” value does the source give for “QVQLVESGGGLVQAGGSLRLSCAASGSIFKAYDMGWYRPAPGKERELVAGISSSDSTYYADSVKGRFSISRDNAKNTVYLQLNSLKPEDTAVYYCAADPVFAAAYIHLYEYWGQGTQVTVSS” here?
A: low polyreactivity

Q: For “QVQLVESGGGLVQAGGSLRLSCAASGRTFQYNAMGWYRQAPGKEREFVAGITSIGGRTYYADSVKGRFTISRDNAKNTVYLQMNSLKPEETAVYYCAAVRGLAVGYDYWGQGTQVTVSS”, which “polyreactivity (PSR sort gate)” value is on record?
A: high polyreactivity

Q: With “QVQLVESGGGLVQAGGSLRLSCAASGSNFDDYGMGWYRQAPGKEREFVATITFGGGTYADSVKGRFTISRDNAKNTVYLQMTSLKPEDTAVYYCAKDWWTYRSSRPSDGTPARDDYWGQGTQVTVSS” as the sequence, how does the “polyreactivity (PSR sort gate)” value read?
A: low polyreactivity

Q: With “QVQLVESGGGLVQAGGSLRLSCAASGRTFSHNTMGWYRQAPGKERELVAAITGSGASTYYADSVKGRFTISRDNAKNTVYLQMNSLKPEDTAVYYCAKVSRQSWYEYDSWGQVTQVTVSS” as the sequence, how does the “polyreactivity (PSR sort gate)” value read?
A: low polyreactivity

Q: With “QVQLVESGGGLVQGGGSLRLSCAASGRTFRYYAMGWYRQAPGKERELVAAITRSGGSTYYADSVKGRFTISRDNAKYTVYLQMNSLKPEDTAVYYCAASRFTSYGIDYDYWAQGTQVTVSS” as the sequence, how does the “polyreactivity (PSR sort gate)” value read?
A: high polyreactivity

Q: Which “polyreactivity (PSR sort gate)” value does the source give for “QVQLVESGGGLVQAGGSLRLSCAASGSIIGFYVMGWYRQAPGKERELVAGISDSGGRTYYADSVKGRFTISRDNAKNTVYLQMNSLKPEDTAVYYCAAEAYKHGVWDYDYWGQGTQVTVSS” here?
A: low polyreactivity

Q: Which “polyreactivity (PSR sort gate)” value does the source give for “QVQLVESGGGLVQAGGSLRLSCAASGRTFGEYAMGWYRQAPGKERELVAAITGGDSTNYADSVKGRFTISRDNAKNTVYFQMNSLKPEDTAVYYCAAYGVKVLWTLTTYDYWGQGTQVTVSS” here?
A: low polyreactivity

Q: With “QVQLVESGGGLVQAGGSLRLSCAASGRIFFRYDLGWYRQAPGKERELVAAISGGDRTSYADSVKGRFTISRDNAKITVYLQMNSLKPEDTAVYYCAGKRRSGEYYYWGQGTQVTVSS” as the sequence, how does the “polyreactivity (PSR sort gate)” value read?
A: low polyreactivity

Q: With “QVQLVESGGGLVQAGGSLRLSCAASGRTIRHNAMGWYRQAPGKERELVAAISRSGGSTYYADSVKGRFTISRDNAKNTVYLQMNSLKREDTAVYYCAAGYHGYDWGQGTQVTVSS” as the sequence, how does the “polyreactivity (PSR sort gate)” value read?
A: high polyreactivity

Q: Which “polyreactivity (PSR sort gate)” value does the source give for “QVQLVESGGGLVQAGGSLRLSCAASGRIVGAYAMGWYRQAPGKERELVAAITSAGSTHYADSVKGRFTISRDNAKNTVYLQMNSLKPEDSAVYYCAADGIARAYVLFYAYDFLYDYWGQGTQVTVSS” here?
A: low polyreactivity

Q: For “QVQLVESGGGLVQAGGSLRLSCAASGRIFGPYAMGWYRQAPGKERELVAAITRGGSTSYADSVKGRFTISRDNAKNTVDLQMISLKTEDTAVDYCAADTLRWWYGFDYWGQGTQVTVSS”, which “polyreactivity (PSR sort gate)” value is on record?
A: low polyreactivity

Q: With “QVQLVESGGGLVQAGGSLRLSCAASGRIFDWYVMGWYRQAPGKERELVAAINSGVSTKYADSVKGRFTISRDNAKNTVYLQMNSLKPEDTAVYYCAAQSFSDYRRTGRKSSYYYWGQGTQVTVSS” as the sequence, how does the “polyreactivity (PSR sort gate)” value read?
A: low polyreactivity

Q: Which “polyreactivity (PSR sort gate)” value does the source give for “QVQLVESGGGLVQAGGSLRLSCAASGSTFFYNVMGWYRQAPGKERELVAAITSSGGGTYYADSVKGRFTISRDNAKNTVYLQMNSLKPEDTAVYYCAKPVWLRDYRHGGRFGYWGQGTQVTVSS” here?
A: low polyreactivity

Q: With “QVQLVESGGGLVQAGGSLRLSCAASGNTFRSYVMGWYRQAPGKERELVADISSGDGTNYADSVKGRFTISRDNAKNTVYLQMNSLKPEDTAVYYCAKDVYNFRTTHSYFTGYDSWGQGTQVTVSS” as the sequence, how does the “polyreactivity (PSR sort gate)” value read?
A: low polyreactivity

Q: Which “polyreactivity (PSR sort gate)” value does the source give for “QVQLVESGGGLVQAGGSLRLSCAASGGTIYGYAAMGWYRQAPGKERELVAAISRSGGRTYYADSVKGRFTISRDNAKNTVYLQMNSRKPEDTAVYYCAARRAYSRPPRDYWGQCTQVTVSS” here?
A: high polyreactivity

Q: For “QVQLVESGGGLVQAGGSLRLSCAASGGTFWYNAMGWYRQAPGKERELVANIRRSGDSTYYADSVKARFTISRDNAKNTVYLQMNSLKPEDTAVYYCAVSYTTYYHRYYYWGQGTQVTVSS”, which “polyreactivity (PSR sort gate)” value is on record?
A: high polyreactivity

Q: For “QVQLVESGGGLVQAGGSLRLSCAASGINFVKYTMGWYRQAPGKERELVAAITWTVGSTYYADSVKGRFTISRDNAKNTVYFQMNSLKPEDTAVYYCAARYYYWGQGTQVTGSS”, which “polyreactivity (PSR sort gate)” value is on record?
A: high polyreactivity

Q: With “QVQLVESGGGLVQAGGSLRLSCAASGRTFYSYAMGWYRQAPGKERELVAAITWRASTYYADSVKGRFTISRDNAKNTVYLQMNSLKPEDTAVYYCAVRDYRPRYYTFLYNSPYDYWGQGTQVTVSS” as the sequence, how does the “polyreactivity (PSR sort gate)” value read?
A: high polyreactivity

Q: For “QVQLVESGVGLVQAGGSLRLSCAASGSTLFVYAMGRYRQAPGKERELVAAISRGGSTYYADSVKGRFTISRDNAKNTVYLQMNSLKPEDTAVYYCAAVGGYPRYGYWGQGTQVTVSS”, which “polyreactivity (PSR sort gate)” value is on record?
A: high polyreactivity

Q: Which “polyreactivity (PSR sort gate)” value does the source give for “QVQLVESGGGLVQAGGSLRLSCAASGFILPNYTMGWYRQAPGKERELVAAISRGGSTNYADSVKGRFTISRDNAKNTVYLQMNSLKPEDTAVYYCAVDAWTGESYWEHYYWGQGTQVTVSS” here?
A: low polyreactivity

Q: For “QVQLVESGGGLVQAGGSLRLSCAASGSIFDDYAMGWYRQAPGKERELVAAITTGGGRTYYADSVKGRFTISRDNAKNTVYLQMNSLKPEDTAVYYCNAKAVRGYGTWRDGSISYGMDYWGQGTQVTVSS”, which “polyreactivity (PSR sort gate)” value is on record?
A: high polyreactivity

Q: With “QVQLVESGGGLVQAGGSLRLSCAASGRNISYNAMGGYRQAPGKERELVAAISWGGGSTYYADSVMGRFTISRDNAKNTVFLHMNSLKQDDTAVYYCAKGWYRIKRNDYWGQGTQVTVSS” as the sequence, how does the “polyreactivity (PSR sort gate)” value read?
A: low polyreactivity

Q: For “QVQLVESGGGLVQAGGSLRLSCAASGITFVLYAMGWYRQAPGKEREFVAAITNSGGSTYYADSVKGRFTISRDNAKNTVYLQMNSLKPEDTAVYYCAATRRRYRPYEYWGQGTQVTVSS”, which “polyreactivity (PSR sort gate)” value is on record?
A: high polyreactivity

Q: For “QVQLVESAGGLVQAGGSLRLSCAASGMILWRYSMGWYRKAPGKEMEFVAAISYRAGSTYYADSVKGRFTISRDNAKNTVYLQMNSLKPEDTAVYYCAAGLKRFGSYPWLKSGMGYWGQGTQVTVSS”, which “polyreactivity (PSR sort gate)” value is on record?
A: high polyreactivity

Q: With “QVQLVESGGGLVQAGGSLRLSCAASGSTFVKYVMGWYRQAPGKERELVAAISRSSVRTSYADSVKGRFTISRDNAKNTVYLQMNSLKPEDTAVYYCAAEYQYGGTTFDYWGQGTQVTVSS” as the sequence, how does the “polyreactivity (PSR sort gate)” value read?
A: high polyreactivity

Q: For “QVQLVESGGGLVQAGGSLRLSCAASGRIFYGYAMGWYRQAPAKERELVAAISWRGGRTYYADSVKGRFTISRDNAKNTVYLQMNSLKPEDTAVYFCNKDFPPQGQLRNMYYWGQGTLVTVSS”, which “polyreactivity (PSR sort gate)” value is on record?
A: high polyreactivity

Q: For “QVQLVESGRGLVQAGGSLRLSCAASGRIFGINAMGGYRQAPGKERELVAPITSGVSTNYADSVKGRFTISRDNAKNTVYLQMNSLKPGDTAVYYCAARPRWYFFSYGRQDYGYWGQGTQVTVSS”, which “polyreactivity (PSR sort gate)” value is on record?
A: low polyreactivity

Q: With “QVQLVESGGGLVQAGGSLRLSCAASGSIFWYNAMAWYRQAPGKERELVAAITGTGDRTYYADSVKGRFTISRDNAKNSVYLQMNSLKPEDSAVYYCAAAYGAYYPWGYDYWGQGTQVTVSS” as the sequence, how does the “polyreactivity (PSR sort gate)” value read?
A: low polyreactivity

Q: For “QVQLVESGGGLVQAGGSLRLSCAASGRTFSRNAMGWYRQAPGKERELVAAISRSGGSTYYADSVKGRFTISRDNAKNTVYFQLNSLKPEDTAVYYCKADVYSTYYNYNYWGQGTQVTVSS”, which “polyreactivity (PSR sort gate)” value is on record?
A: high polyreactivity

Q: With “QVQLVESGGGLVQAGGSLRLSCAASGSYFDYYAMGCYTQAPGKERELVAAISWRGGTTYYADSVKGRFTISRDTAKKTVYLQMNSLKPEETAVYYCNADKRFRRYDYWGQGTQVTVSS” as the sequence, how does the “polyreactivity (PSR sort gate)” value read?
A: high polyreactivity
